Measurements: US20260263566A1 (REALTA, published 2026)
Ends that are not written are not given here. dPEG24 = 24 PEG moieties, at the C-terminus

Molecular target: T1, Human neutrophil myeloperoxidase (MPO), purified (human, UniProt P05164 165-745, limits assumed)
T1 sequence (looked up): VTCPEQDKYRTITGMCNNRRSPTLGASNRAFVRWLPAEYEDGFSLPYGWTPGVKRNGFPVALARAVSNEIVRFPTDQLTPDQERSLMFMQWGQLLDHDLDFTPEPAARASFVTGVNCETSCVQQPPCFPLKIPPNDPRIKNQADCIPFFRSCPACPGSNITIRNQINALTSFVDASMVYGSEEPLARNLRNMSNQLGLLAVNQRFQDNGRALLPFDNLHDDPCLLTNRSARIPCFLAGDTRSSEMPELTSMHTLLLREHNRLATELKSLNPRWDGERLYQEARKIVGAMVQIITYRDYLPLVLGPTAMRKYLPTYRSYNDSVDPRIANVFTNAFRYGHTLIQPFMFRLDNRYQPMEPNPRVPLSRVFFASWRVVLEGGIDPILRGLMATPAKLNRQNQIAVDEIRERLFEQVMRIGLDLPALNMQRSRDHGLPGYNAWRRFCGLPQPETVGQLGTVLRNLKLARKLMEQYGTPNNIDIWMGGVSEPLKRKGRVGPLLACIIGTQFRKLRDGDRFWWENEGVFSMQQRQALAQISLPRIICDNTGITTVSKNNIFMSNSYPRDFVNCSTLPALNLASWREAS
Test: cell-based or functional assay

Binder: IALILEPICCQERAA-dPEG24 (cysteine pairing not given here) [PA-dPEG24 (IALILEPICCQERAA-dPEG24)]
- peroxidase activity by TMB in peritoneal wash supernatant (rat; 0.1 mg purified MPO IP, then 20 mg PA-dPEG24 IP, 2 hours): 5 fold decrease
